Substrate: CC(C)C[C@H](N)C(=O)O
Assay: pyrophosphate release assay of A-domain adenylation
Assay type: biochemical, Aspergillus terreus
Settings: holo C-A-T-R module

B1: NRPS325 (Aspergillus terreus NIH2624) (protein)
chain: PTVERHVESQEPVVEAAVVASSSDSSSEGTMTPPSSRGINTPHTEITNLQLESVKSKACTAVQRREKMSFSQNRLWFPSAYLEQETPFNCTTSYTLTGPLDTARLENAFQRLIQRHESFRTAFYTDEVSGAAMQRVLASSPFQLRTMLGNKDDMQRVFRQIANYHFDLSVADTLVATLISHGPKDHTIVFGYHHIIMDGVSWQITLNDLARFYESDNPELPQLSQYIEFSVKQRQLVSSGAHDAKLSYWRKEFPSAPPLLPLFPFAKVGARKALTRYDTLDYIYDVDVSLVSKIKKASLAAKTTTFHFYLAAFVVLLNRFLEIDDVCLGIIDANRSDKTFLNTVGFLLDMLPLRLKVNKKERFVHTLRNTRAKAYNALEHSGVPLETILKELQVPTSATNTPLFQVLMNYRMGALRAPQMGDAKMNFLDYEDAKAPFDLAISIDEKDDGTGMLTFSMQDYMYDWEGAELLVKTYVHLLDTLATDSSQRINEVSLFDESLVNQSMVAGTGPVTGLDWAGTETISQRVDAMTAQRPDGVAVKDLNGKARTYAETQARVYALASSLQQAGITSGARVAVYCEPTVDTVALVLAIYRVGAAYIPLDVRNSHERLADVVRECKPTLILYHGATKHTLVDVAGDGQDALDIDTVPQSAAPIPDVSKLSDPAVILYTSGSTGKPKGIMLTHANLSLQFASISSALDLTDRDVVLQQSALGFDASLSQMFMALTNGGTLIHGSNRGDPVDLAALIEREGVTLTLIMISEMSALLQYGSDILSRCQSWRIALCGGEAFTVNLLRKFRDLNLPNLELYNAYGPTEASIMSSLGKVAYRRTDWGDGSVVPVGPPLPNYGVYVLDENFQPCPLGWPGELCICGPGVAEGYVGLPELTSSKFQPDQLRKPQGPSYDGWVRVYRTGDKARLLQDGSFVFLGRMDGDSQVKLRGIRIELNDISNSIVKTSKEAIVDAATIVKGTTSQTLVSFVVFAPAKVVDLERSNSSASAYLRQVIQSLPLPVYMRPAIAVPLERLPFTERGKLDTKALAAIPIQEDEETVNEELSETEQKLKQVWQDILSEQGMSLEIRRQSDFFSVGGNSLMLMRVRAKMLEVFGVSVPLAELFQASTLETLASRLDGNKTAESDNIVWNEETALDVSLPPAIAHPRDHPEKDLSVILTGSTGFLGRAIVRQLIADPRISTIHCLAVRPGRTLPEELVGSSKVIVYTGDLAAKRLGLSAPQAQEIFSSAAAIIHNGAEVSHMKSYHSLRPTNVDSTRQLVELALRSSIDSAVRTPAFHYVSTAGVGHLLGIPAFPEQSVSSSPPPVDGSDGYVAAKWASERILEQASERLGLPVFIHRPSNITGPDVGDRDIIHNVWRWSEVLRAVPDLVAAGAKGAFDFVGVETCAKGITDTLFVQASAGHLAYIHQSGENVIPVEEFGECLQRNGGADVELVPFDQWVDKAVQAGLDDLVASFLRGTKGAFQMPFLPKGLRQ
Protein B1 has a Km of 310.0 ± 15.5 µM and a kcat of 0.287 ± 0.04 s⁻¹.
